Consider one protein from publication PMC7672554, “Selective Metal Ion Utilization Contributes to the Transformation of the Activity of Yeast Polymerase η from DNA Polymerization toward RNA Polymerization” (International Journal of Molecular Sciences, 2020).

Common to all, as to assay: steady-state primer extension, Cy3-labelled RNA primer/DNA template, gel quantitation
What all share (type): biochemical, Saccharomyces cerevisiae

Substrate in data set [1]: Nc1ccn([C@@H]2O[C@H](COP(=O)(O)OP(=O)(O)OP(=O)(O)O)[C@@H](O)[C@H]2O)c(=O)n1
To be noted: RNA primer, template G (correct pair), 5 mM Mn2+, 20 nM primer/template, 25 mM Tris/HCl pH 7.5, 30 °C. The source says:
(§1) steady-state primer extension, Cy3-labelled RNA primer/DNA template, gel quantitation on Polη (yeast Polymerase η)

Substrate in data set [2]: O=c1ccn([C@@H]2O[C@H](COP(=O)(O)OP(=O)(O)OP(=O)(O)O)[C@@H](O)[C@H]2O)c(=O)[nH]1
To be noted: RNA primer, template A (correct pair), 5 mM Mn2+, 20 nM primer/template, 25 mM Tris/HCl pH 7.5, 30 °C.
Excerpt: as §1

Substrate in data set [3]: Nc1nc2c(ncn2[C@@H]2O[C@H](COP(=O)(O)OP(=O)(O)OP(=O)(O)O)[C@@H](O)[C@H]2O)c(=O)[nH]1
As to conditions: RNA primer, template C (correct pair), 5 mM Mn2+, 20 nM primer/template, 25 mM Tris/HCl pH 7.5, 30 °C.
Excerpt: as §1

Substrate in data set [4]: Nc1ncnc2c1ncn2[C@@H]1O[C@H](COP(=O)(O)OP(=O)(O)OP(=O)(O)O)[C@@H](O)[C@H]1O
To be noted: RNA primer, template T (correct pair), 5 mM Mn2+, 20 nM primer/template, 25 mM Tris/HCl pH 7.5, 30 °C.
Excerpt: as §1

B1: Polη (yeast Polymerase η) (Saccharomyces cerevisiae S288C) (protein)
chain: MSKFTWKELIQLGSPSKAYESSLACIAHIDMNAFFAQVEQMRCGLSKEDPVVCVQWNSIIAVSYAARKYGISRMDTIQEALKKCSNLIPIHTAVFKKGEDFWQYHDGCGSWVQDPAKQISVEDHKVSLEPYRRESRKALKIFKSACDLVERASIDEVFLDLGRICFNMLMFDNEYELTGDLKLKDALSNIREAFIGGNYDINSHLPLIPEKIKSLKFEGDVFNPEGRDLITDWDDVILALGSQVCKGIRDSIKDILGYTTSCGLSSTKNVCKLASNYKKPDAQTIVKNDCLLDFLDCGKFEITSFWTLGGVLGKELIDVLDLPHENSIKHIRETWPDNAGQLKEFLDAKVKQSDYDRSTSNIDPLKTADLAEKLFKLSRGRYGLPLSSRPVVKSMMSNKNLRGKSCNSIVDCISWLEVFCAELTSRIQDLEQEYNKIVIPRTVSISLKTKSYEVYRKSGPVAYKGINFQSHELLKVGIKFVTDLDIKGKNKSYYPLTKLSMTITNFDIIDLQKTVVDMFGNQVHTFKSSAGKEDEEKTTSSKADEKTPKLECCKYQVTFTDQKALQEHADYHLALKLSEGLNGAEESSKNLSFGEKRLLFSRKRPNSQHTATPQKKQVTSSKNILSFFTRKK
notes: overexpressed in yeast as N-terminal GST fusion, GST removed with PreScission protease; no truncation stated
As for B1, the Km in data set [1] was determined as 1.89 ± 0.42 µM; in data set [2], 12.8 ± 2.25 µM; in data set [3] it was 2.55 ± 0.63 µM; in data set [4] it was 2.51 ± 0.64 µM. Besides, the kcat in data set [1] was determined as 0.078 ± 0.00367 s⁻¹; in data set [2] it was 0.0585 ± 0.00317 s⁻¹; in data set [3], 0.0845 ± 0.0045 s⁻¹; in data set [4], 0.0435 ± 0.00233 s⁻¹. Also, the kcat/Km in data set [1] was determined as 41300 M⁻¹ s⁻¹; in data set [2], 4500 M⁻¹ s⁻¹; in data set [3] it was 33200 M⁻¹ s⁻¹; in data set [4], 17300 M⁻¹ s⁻¹.
